# Reference: article PMC4273445 (eLife, 2014)
# Legend:
# Experiment in all cases: SPR
# [1] = target: fHbp V2.21 Val (at V1 Ile196) to Ala (N. meningitidis)
# [2] = target: fHbp V1.1 Lys92 to Ala (N. meningitidis)
# [3] = target: fHbp 1.P61 (N. meningitidis) (UniProt E6MV22)
# [4] = target: fHbp V2.21 Asn (at V1 Asn108) to Ala (N. meningitidis)
# [5] = target: fHbp V1.1 Lys268 to Ala (N. meningitidis)
# [6] = target: fHbp V1.1 Glu157 to Ala (N. meningitidis)
# [7] = target: fHbp V3.28 Lys (at V1 Lys92) to Ala (N. meningitidis)
# [8] = target: fHbp V3.28 Gln (at V1 Lys107) to Ala (N. meningitidis)
# [9] = target: fHbp V3.28 Val (at V1 Leu171) to Ala (N. meningitidis)
# [10] = target: fHbp V1.1 His184 to Ala (N. meningitidis)
# [11] = target: fHbp V3.28 Lys (at V1 Lys268) to Ala (N. meningitidis)
# [12] = target: fHbp V1.1 Phe292 to Ala (N. meningitidis)
# [13] = target: fHbp V1.1 Gln103 to Ala (N. meningitidis)
# [14] = target: fHbp V2.21 Ser (at V1 Ser104) to Ala (N. meningitidis)
# [15] = target: fHbp V1.1 His313 to Ala (N. meningitidis)
# [16] = target: fHbp V1.1 Asp266 to Ala (N. meningitidis)
# [17] = target: fHbp V3.28 Leu (at V1 Leu289) to Ala (N. meningitidis)
# [18] = target: fHbp V2.21 Lys (at V1 Lys107) to Ala (N. meningitidis)
# [19] = target: fHbp V3.28 Glu (at V1 Gly267) to Ala (N. meningitidis)
# [20] = target: fHbp V3.28 Thr (at V1 Ser185) to Ala (N. meningitidis)
# [21] = target: fHbp V3.28 Leu (at V1 Ile199) to Ala (N. meningitidis)
# [22] = target: fHbp V2.21 Lys (at V1 Lys264) to Ala (N. meningitidis)
# [23] = target: fHbp V2.21 Ile (at V1 Ile179) to Ala (N. meningitidis)
# [24] = target: fHbp V1.1 Ser104 to Ala (N. meningitidis)
# [25] = target: fHbp V3.28 Phe (at V1 Phe292) to Ala (N. meningitidis)
# [26] = target: fHbp V1.1 Ser182 to Ala (N. meningitidis)
# [27] = target: fHbp V3.28 Glu (at V1 Glu283) to Ala (N. meningitidis)
# [28] = target: fHbp V3.28 Pro (at V1 Ser182) to Ala (N. meningitidis)
# [29] = target: fHbp 1.P9 (N. meningitidis) (UniProt E6MV22)
# [30] = target: fHbp V2.21 Arg (at V1 Arg145) to Ala (N. meningitidis)
# [31] = target: fHbp V3.28 Ile (at V1 Ile154) to Ala (N. meningitidis)
# [32] = target: fHbp V1.1 Lys264 to Ala (N. meningitidis)
# [33] = target: fHbp V3.28 Ser (at V1 Gln193) to Ala (N. meningitidis)
# [34] = target: fHbp V3.28 Val (at V1 Val149) to Ala (N. meningitidis)
# [35] = target: fHbp V1.1 Ser286 to Ala (N. meningitidis)
# [36] = target: fHbp V3.28 Ile (at V1 Ile147) to Ala (N. meningitidis)
# [37] = target: fHbp V3.28 Asn (at V1 Asn108) to Ala (N. meningitidis)
# [38] = target: fHbp V1.1 Glu109 to Ala (N. meningitidis)
# [39] = target: fHbp V2.21 Leu (at V1 Leu156) to Ala (N. meningitidis)
# [40] = target: fHbp V1.1 Asp181 to Ala (N. meningitidis)
# [41] = target: fHbp V3.28 Gln (at V1 Lys191) to Ala (N. meningitidis)
# [42] = target: fHbp V1.1 Asp262 to Ala (N. meningitidis)
# [43] = target: fHbp V3.28 Ser (at V1 Ser104) to Ala (N. meningitidis)
# [44] = target: fHbp V1.1 Leu156 to Ala (N. meningitidis)
# [45] = target: fHbp V2.21 Glu (at V1 His313) to Ala (N. meningitidis)
# [46] = target: fHbp V2.21 Glu (at V1 Asp262) to Ala (N. meningitidis)
# [47] = target: fHbp V2.21 Val (at V1 Leu171) to Ala (N. meningitidis)
# [48] = target: fHbp V2.21 Phe (at V1 Phe292) to Ala (N. meningitidis)
# Chain of CFH67, CCP domains 6 and 7 of complement factor H (P08603 321-443): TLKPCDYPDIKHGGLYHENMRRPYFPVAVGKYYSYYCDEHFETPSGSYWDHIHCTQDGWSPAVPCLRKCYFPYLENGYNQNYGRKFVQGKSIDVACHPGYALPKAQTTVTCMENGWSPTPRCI
substance,measurement,setting,value
"CFH67, CCP domains 6 and 7 of complement factor H (from UniProt P08603 321-443) (domain or fragment)",Kd,[1],40 nM
same,Kd,[2],4.4 nM
same,Kd,[3],2.28 nM
same,Kd,[4],3.82 nM
same,Kd,[5],3.53 nM
same,Kd,[6],20.7 nM
same,Kd,[7],2.67 nM
same,Kd,[8],46.4 nM
same,Kd,[9],3.07 nM
same,Kd,[10],9.27 nM
same,Kd,[11],2.61 nM
same,Kd,[12],6.8 nM
same,Kd,[13],7.03 nM
same,Kd,[14],2.52 nM
same,Kd,[15],23.5 nM
same,Kd,[16],3.34 nM
same,Kd,[17],1.29 nM
same,Kd,[18],3.06 nM
same,Kd,[19],1.45 nM
same,Kd,[20],4.42 nM
same,Kd,[21],25.8 nM
same,Kd,[22],16.7 nM
same,Kd,[23],12 nM
same,Kd,[24],9.78 nM
same,Kd,[25],1.97 nM
same,Kd,[26],4.35 nM
same,Kd,[27],11.9 nM
same,Kd,[28],3.06 nM
same,Kd,[29],4.87 nM
same,Kd,[30],0.408 nM
same,Kd,[31],14.3 nM
same,Kd,[32],12.3 nM
same,Kd,[33],4.14 nM
same,Kd,[34],6.81 nM
same,Kd,[35],11.3 nM
same,Kd,[36],33.6 nM
same,Kd,[37],3.71 nM
same,Kd,[38],2.93 nM
same,Kd,[39],4.7 nM
same,Kd,[40],4.14 nM
same,Kd,[41],2.43 nM
same,Kd,[42],6.54 nM
same,Kd,[43],8.99 nM
same,Kd,[44],60.5 nM
"CFHR3_(12), the first two (N-terminal) CCP domains of complement factor H-related 3 (from UniProt Q02985 19-330) (domain or fragment)",Kd,[2],71.9 nM
same,Kd,[3],26.4 nM
same,Kd,[4],4.26 nM
same,Kd,[5],43 nM
same,Kd,[7],3.39 nM
same,Kd,[8],25.3 nM
same,Kd,[9],3.81 nM
same,Kd,[10],118 nM
same,Kd,[11],3.2 nM
same,Kd,[14],4.91 nM
same,Kd,[15],50.5 nM
same,Kd,[16],82.6 nM
same,Kd,[17],1.18 nM
same,Kd,[18],4.47 nM
same,Kd,[19],2.57 nM
same,Kd,[20],3.76 nM
same,Kd,[21],34.6 nM
same,Kd,[22],30.2 nM
same,Kd,[23],7.84 nM
same,Kd,[24],382 nM
same,Kd,[45],0.723 nM
same,Kd,[46],5.43 nM
same,Kd,[25],2.91 nM
same,Kd,[26],83.7 nM
same,Kd,[27],20.6 nM
same,Kd,[28],3.24 nM
same,Kd,[29],41.1 nM
same,Kd,[30],2.88 nM
same,Kd,[31],13.7 nM
same,Kd,[47],9.81 nM
same,Kd,[32],589 nM
same,Kd,[33],3.03 nM
same,Kd,[34],8.28 nM
same,Kd,[35],93.6 nM
same,Kd,[36],17.9 nM
same,Kd,[37],3.21 nM
same,Kd,[38],27.9 nM
same,Kd,[39],7.54 nM
same,Kd,[40],52.5 nM
same,Kd,[41],3.05 nM
same,Kd,[42],89.2 nM
same,Kd,[43],7.19 nM
same,Kd,[48],19.4 nM
same,Kd,[44],311 nM
